# Results reported in the supplement of paper PMC9112550, “Optimization of the antimicrobial peptide Bac7 by deep mutational scanning” (BMC Biology, 2022).
# System: Escherichia coli TOP10
# Assay: shrunken log2 fold change of peptide-encoding DNA abundance (4.5 h post-induction vs induction); higher = less antimicrobial activity (less host growth inhibition)
# Details: time post-induction: 4.5 h; library: site-saturation at positions 5, 18, 19, 20
# 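Note: peptides expressed intracellularly from a pBAD plasmid library in pooled LB shake-flask culture, induced with 0.3% L-arabinose, DNA abundance read by NGS, three biological replicates, DESeq2 with apeglm shrinkage.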
row,Sequence,shrunken log2 fold change
1,RRIRHRPPRLPRPRPRPGPVPRP,0.26
2,RRIRRRPPRLPRPRPRPKFQPRP,-0.00642
3,RRIRMRPPRLPRPRPRPVPTPRP,0.5
4,RRIRARPPRLPRPRPRPEIHPRP,0.756
5,RRIRWRPPRLPRPRPRPECIPRP,0.872
6,RRIRWRPPRLPRPRPRPRPLPRP,0.158
7,RRIRPRPPRLPRPRPRPTKMPRP,0.0417
8,RRIRSRPPRLPRPRPRPMCWPRP,0.318
9,RRIRIRPPRLPRPRPRPGRAPRP,0.431
10,RRIRIRPPRLPRPRPRPEDFPRP,0.00408
11,RRIRIRPPRLPRPRPRPVMFPRP,-0.255
12,RRIRVRPPRLPRPRPRPTHEPRP,0.256
13,RRIRPRPPRLPRPRPRPTFIPRP,-0.243
14,RRIRPRPPRLPRPRPRPIQKPRP,0.115
15,RRIRPRPPRLPRPRPRPLWDPRP,0.00439
16,RRIRGRPPRLPRPRPRPEVEPRP,2.03
17,RRIRPRPPRLPRPRPRPVLAPRP,0.668
18,RRIRWRPPRLPRPRPRPIWQPRP,-0.0567
19,RRIRCRPPRLPRPRPRPHDFPRP,-0.0215
20,RRIRCRPPRLPRPRPRPCLIPRP,-0.404
21,RRIRERPPRLPRPRPRPEWIPRP,0.064
22,RRIRARPPRLPRPRPRPATTPRP,0.681
23,RRIRHRPPRLPRPRPRPGHAPRP,-0.0876
24,RRIRTRPPRLPRPRPRPLTRPRP,0.252
25,RRIRQRPPRLPRPRPRPLNQPRP,-0.155

row,Sequence,shrunken log2 fold change
1,RRIRSRPPRLPRPRPRPTMQPRP,-0.106
2,RRIRTRPPRLPRPRPRPTNRPRP,0.0146
3,RRIRWRPPRLPRPRPRPCNYPRP,-0.2
4,RRIRRRPPRLPRPRPRPGLMPRP,0.342
5,RRIRWRPPRLPRPRPRPVHPPRP,-0.23
6,RRIRCRPPRLPRPRPRPYIIPRP,-0.985
7,RRIRWRPPRLPRPRPRPLYTPRP,-0.24
8,RRIRARPPRLPRPRPRPGKGPRP,0.158
9,RRIRNRPPRLPRPRPRPGWEPRP,1.72
10,RRIRGRPPRLPRPRPRPCHNPRP,0.033
11,RRIRCRPPRLPRPRPRPPSHPRP,-0.0142
12,RRIRIRPPRLPRPRPRPRGGPRP,0.217
13,RRIRFRPPRLPRPRPRPSCWPRP,0.144
14,RRIRYRPPRLPRPRPRPCIVPRP,-0.246
15,RRIRIRPPRLPRPRPRPTMCPRP,-0.386
16,RRIRCRPPRLPRPRPRPPSWPRP,0.194
17,RRIRVRPPRLPRPRPRPVYRPRP,0.132
18,RRIRCRPPRLPRPRPRPFSVPRP,-0.236
19,RRIRDRPPRLPRPRPRPTWDPRP,0.629
20,RRIRDRPPRLPRPRPRPVWPPRP,0.225
21,RRIRTRPPRLPRPRPRPKVCPRP,-0.00594
22,RRIRPRPPRLPRPRPRPKTFPRP,-0.322
23,RRIRMRPPRLPRPRPRPYEDPRP,0.477
24,RRIRNRPPRLPRPRPRPLLYPRP,-0.588
25,RRIRARPPRLPRPRPRPDSTPRP,-0.0804

row,Sequence,shrunken log2 fold change
1,RRIRTRPPRLPRPRPRPPTPPRP,0.368
2,RRIRYRPPRLPRPRPRPNMGPRP,-0.00101
3,RRIRCRPPRLPRPRPRPMDGPRP,0.013
4,RRIRPRPPRLPRPRPRPYIHPRP,-0.946
5,RRIRPRPPRLPRPRPRPPEDPRP,0.695
6,RRIRNRPPRLPRPRPRPCIIPRP,-0.0176
7,RRIRPRPPRLPRPRPRPPAKPRP,0.657
8,RRIRYRPPRLPRPRPRPSAGPRP,-0.165
9,RRIRKRPPRLPRPRPRPWWHPRP,0.047
10,RRIRHRPPRLPRPRPRPTAIPRP,-0.183
11,RRIRDRPPRLPRPRPRPPTMPRP,-0.061
12,RRIRDRPPRLPRPRPRPQRFPRP,0.095
13,RRIRQRPPRLPRPRPRPCDQPRP,0.0849
14,RRIRRRPPRLPRPRPRPHEVPRP,0.0299
15,RRIRNRPPRLPRPRPRPRQQPRP,0.365
16,RRIRVRPPRLPRPRPRPCWLPRP,-0.0153
17,RRIRIRPPRLPRPRPRPPEEPRP,0.0652
18,RRIRYRPPRLPRPRPRPEWTPRP,-0.247
19,RRIRTRPPRLPRPRPRPKGGPRP,0.279
20,RRIRNRPPRLPRPRPRPFTEPRP,-0.236
21,RRIRDRPPRLPRPRPRPDPYPRP,0.00859
22,RRIRIRPPRLPRPRPRPLLHPRP,-0.221
23,RRIRCRPPRLPRPRPRPWSWPRP,0.0159
24,RRIRNRPPRLPRPRPRPMNVPRP,-0.00101
25,RRIRQRPPRLPRPRPRPVPCPRP,0.0476

row,Sequence,shrunken log2 fold change
1,RRIRCRPPRLPRPRPRPCRHPRP,-0.196
2,RRIRNRPPRLPRPRPRPKARPRP,-0.00166
3,RRIRKRPPRLPRPRPRPPMEPRP,0.135
4,RRIRVRPPRLPRPRPRPWMSPRP,-0.076
5,RRIRCRPPRLPRPRPRPWGPPRP,-0.299
6,RRIRARPPRLPRPRPRPQPMPRP,0.229
7,RRIRARPPRLPRPRPRPMHKPRP,0.221
8,RRIRLRPPRLPRPRPRPMALPRP,-0.0125
9,RRIRTRPPRLPRPRPRPAHEPRP,0.197
10,RRIRRRPPRLPRPRPRPTGWPRP,0.766
11,RRIRARPPRLPRPRPRPGIIPRP,0.106
12,RRIRRRPPRLPRPRPRPFFRPRP,0.354
13,RRIRWRPPRLPRPRPRPFEYPRP,-0.331
14,RRIRWRPPRLPRPRPRPSQLPRP,-0.375
15,RRIRARPPRLPRPRPRPRCYPRP,0.0779
16,RRIRMRPPRLPRPRPRPKWRPRP,0.797
17,RRIRWRPPRLPRPRPRPEDCPRP,-0.00079
18,RRIRLRPPRLPRPRPRPVCHPRP,-0.274
19,RRIRHRPPRLPRPRPRPIVDPRP,0.0237
20,RRIRRRPPRLPRPRPRPICMPRP,0.296
21,RRIRARPPRLPRPRPRPMTYPRP,-0.086
22,RRIRPRPPRLPRPRPRPRMHPRP,0.115
23,RRIRTRPPRLPRPRPRPVWNPRP,-0.117
24,RRIRHRPPRLPRPRPRPARMPRP,-0.0768
25,RRIRQRPPRLPRPRPRPKPLPRP,0.176

row,Sequence,shrunken log2 fold change
1,RRIRTRPPRLPRPRPRPHGQPRP,-0.0788
2,RRIRERPPRLPRPRPRPSDGPRP,-0.166
3,RRIRCRPPRLPRPRPRPVWGPRP,-0.0554
4,RRIRWRPPRLPRPRPRPYVAPRP,-0.492
5,RRIRVRPPRLPRPRPRPASTPRP,-0.311
6,RRIRRRPPRLPRPRPRPIPVPRP,0.265
7,RRIRIRPPRLPRPRPRPSYDPRP,-0.414
8,RRIRKRPPRLPRPRPRPRPAPRP,0.758
9,RRIRIRPPRLPRPRPRPCVHPRP,-1.13
10,RRIRVRPPRLPRPRPRPEVPPRP,0.326
11,RRIRGRPPRLPRPRPRPENPPRP,0.842
12,RRIRFRPPRLPRPRPRPLWGPRP,0.251
13,RRIRPRPPRLPRPRPRPENWPRP,0.264
14,RRIRERPPRLPRPRPRPKHCPRP,0.0411
15,RRIRPRPPRLPRPRPRPSRTPRP,0.198
16,RRIRERPPRLPRPRPRPKDMPRP,0.00303
17,RRIRHRPPRLPRPRPRPYEGPRP,-0.0203
18,RRIRVRPPRLPRPRPRPFVGPRP,-0.0757
19,RRIRDRPPRLPRPRPRPWFGPRP,0.228
20,RRIRIRPPRLPRPRPRPEGGPRP,0.155
21,RRIRRRPPRLPRPRPRPEVRPRP,0.176
22,RRIRCRPPRLPRPRPRPQHDPRP,-0.219
23,RRIRCRPPRLPRPRPRPCDCPRP,-0.139
24,RRIRLRPPRLPRPRPRPWGFPRP,-0.0515
25,RRIRRRPPRLPRPRPRPCMEPRP,-0.174

row,Sequence,shrunken log2 fold change
1,RRIRQRPPRLPRPRPRPSCAPRP,-0.0664
2,RRIRSRPPRLPRPRPRPHQAPRP,-0.161
3,RRIRHRPPRLPRPRPRPYDEPRP,-0.0392
4,RRIRMRPPRLPRPRPRPDVIPRP,-0.0756
5,RRIRGRPPRLPRPRPRPYCNPRP,-0.411
6,RRIRARPPRLPRPRPRPDQNPRP,0.489
7,RRIRFRPPRLPRPRPRPPNIPRP,-0.185
8,RRIRARPPRLPRPRPRPMSSPRP,0.0476
9,RRIRTRPPRLPRPRPRPIKFPRP,-0.0306
10,RRIRVRPPRLPRPRPRPKYCPRP,-0.221
11,RRIRPRPPRLPRPRPRPLNCPRP,-0.227
12,RRIRKRPPRLPRPRPRPYATPRP,0.0656
13,RRIRWRPPRLPRPRPRPLMKPRP,-0.0639
14,RRIRVRPPRLPRPRPRPDCFPRP,0.0303
15,RRIRWRPPRLPRPRPRPDCKPRP,-0.0137
16,RRIRARPPRLPRPRPRPIQCPRP,0.00559
17,RRIRLRPPRLPRPRPRPGWPPRP,0.406
18,RRIRDRPPRLPRPRPRPGSLPRP,-0.0141
19,RRIRNRPPRLPRPRPRPIAKPRP,-0.000903
20,RRIRPRPPRLPRPRPRPEEWPRP,-0.0099
21,RRIRKRPPRLPRPRPRPWRNPRP,-0.0406
22,RRIRFRPPRLPRPRPRPWETPRP,0.0299
23,RRIRPRPPRLPRPRPRPSVNPRP,-0.44
24,RRIRMRPPRLPRPRPRPVFLPRP,0.0386
25,RRIRPRPPRLPRPRPRPVTCPRP,-0.237
